B1: 2N9 human anti-CMV antibody (antibody, V domains shown)
VH: QVQLVESGGGVVQPGRSLRLSCAASGFTFSSNGIHWVRQAPGKGLDWVAVISSDANDKQYADSVKGRFTISRDNSKNMVYLQMNSLRVEDTAVYFCARDGTCSGGNCYSGLIDYWGRGILVTVSS
VL: EIVLTQSPATLSLSPGERATLSCRASQSVGGYLAWYQQKPGQAPRLLIYDASIRATGIPARFSGSGSGTDFTLTISSLEPEDFAVYYCHQRSNWPPLTFGGGTKVDIKR
notes: Recombinant human IgG, gamma heavy and kappa light chain; (MDMR); If the listing entry has two more residues, the range shifts by 2; also called TCN-202; mAb C-2N9
B2: 5P9 human anti-CMV antibody (antibody, V domains shown)
VH: QVQLVESGGGVIQPGRSLRLSCVASKFIFSNHGIHWVRQAPGKGLEWVAVISKDGTNAHYADSVRGRFSISRDNSKDTVFLEMRSLRPEDTAVYYCAREGRCIEEKCYSGQIDYWGQGSLVTVSS
VL: EILLTQSPATLSLSPGERATLSCRASQSVGRYMAWYQQRPGQAPRLLIYDASIRATGIPARFSGSGSGTDFTLTISSLQTEDFAIYYCQQRSSWPPLTFGGGTKVEIKR
notes: Recombinant human IgG, gamma heavy and kappa light chain; also called mAb E-5P9
B3: 2F10 human anti-CMV antibody (antibody, V domains shown)
VH: QVHLVESGGGVVQPGRALRLSCAATGFTFSNHGIHWVRQAPGKGLEWLAVISSDGDDDRYADSVKGRFSVSRDNSKNTVHLQMNGLRPDDTAIYFCARDGRCGEPKCYSGLPDYWGRGTLVTVSS
VL: EIVLTQSPATLSLSPGDRATLSCRASQSVGGYLAWYQQKPGQAPRLLLYDASNRATGIPARFSGSGSGTDFTLTISSLEPEDFALYYCLQRNTWPPLTFGGGTKVEIKR
notes: Recombinant human IgG, gamma heavy and kappa light chain, made by transient transfection of 293 cells; also called mAb A-2F10
B4: 4P12 human anti-CMV antibody (antibody, V domains shown)
VH: QVQLVESGGGVIQPGRSLRLSCVASKFIFSNHGIHWVRQAPGKGLEWVAVISKDGTNAHYADSVRGRFSISRDNSKDTVFLEMRSLRPEDTAVYYCAREGRCIEENCYSGQIDYWGQGSLVTVSS
VL: EILLTQSPATLSLSPGERATLSCRASQSVGRYMAWYQQRPGQAPRLLIYDASIRATGIPARFSGSGSGTDFTLTISSLQPEDFAIYYCQQRSSWPPLTFGGGTKVEIKR
notes: Recombinant human IgG, gamma heavy and kappa light chain; also called mAb D-4P12

Legend:
[1] = target: T1, CMV gp116 epitope AD2 site peptide SHRANETIYNTTLKYGDTTGTNTTK (CMV (human cytomegalovirus), not fully specified); test: kinetic affinity measurement, method not stated; antigen taken as CMV gp116 AD2 peptide
T1 construct: Synthetic polypeptide corresponding to the AD2 site of gp116 (glycoprotein B); A biotinylated form was used to select B cells; also called CMV gp116 AD2 peptide
T1 peptide: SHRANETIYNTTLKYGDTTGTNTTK

[2] = target: T1, CMV gp116 epitope AD2 site peptide …; test: kinetic affinity measurement, method not stated; antigen taken as AD2 peptide; same value as r13, table re-sorted by koff
[3] = target: GPCMV gB (glycoprotein B of guinea pig CMV strain V545/82) (guinea pig cytomegalovirus); test: cell-based or functional assay
[4] = target: T1, CMV gp116 epitope AD2 site peptide …; test: kinetic affinity measurement, method not stated; antigen taken as AD2 peptide; same value as r9, table re-sorted by koff
[5] = target: T1, CMV gp116 epitope AD2 site peptide …; test: kinetic affinity measurement, method not stated; antigen taken as AD2 peptide; same value as r8, table re-sorted by koff
[6] = target: T1, CMV gp116 epitope AD2 site peptide …; test: kinetic affinity measurement, method not stated; antigen taken as AD2 peptide; same value as r12, table re-sorted by koff

| Binder | Kd [1] [nM] | koff [1] [s⁻¹] | kon [1] [M⁻¹ s⁻¹] | Kd [2] [nM] | koff [2] [s⁻¹] | kon [2] [M⁻¹ s⁻¹] | neutralization of GPCMV V545/82 entry into JH4 cells; highest concentration tested without effect [3] [ng/mL] | Kd [4] [nM] | koff [4] [s⁻¹] | kon [4] [M⁻¹ s⁻¹] | Kd [5] [nM] | koff [5] [s⁻¹] | kon [5] [M⁻¹ s⁻¹] | Kd [6] [nM] | koff [6] [s⁻¹] | kon [6] [M⁻¹ s⁻¹] |
| --- | --- | --- | --- | --- | --- | --- | --- | --- | --- | --- | --- | --- | --- | --- | --- | --- |
| B1 | 11.6 | 0.03 | 2.6e+06 | 11.6 | 0.03 | 2.6e+06 | > 300 |  |  |  |  |  |  |  |  |  |
| B2 | 4.9 | 0.00121 | 245000 |  |  |  | > 300 | 4.9 | 0.00121 | 245000 |  |  |  |  |  |  |
| B3 | 1.98 | 0.00111 | 562000 |  |  |  | > 300 |  |  |  | 1.98 | 0.00111 | 562000 |  |  |  |
| B4 | 10.9 | 0.0019 | 175000 |  |  |  | > 300 |  |  |  |  |  |  | 10.9 | 0.0019 | 175000 |
